Paper PMC9283937
“And” between values parts separate entries of the source, which are not always exact repeats. Equal values may be shown once.

Assays:
[1] = biological target: LarE from Thermotoga maritima, C-terminal His6-tagged (Thermotoga maritima); assay: native MS; nondenaturing nano-ESI-MS (Q Exactive UHMR) under anoxic atmosphere; cluster-assembled His6-tagged LarETm after anaerobic incubation with IscSEc and L-cysteine; CID 15 eV
[2] = biological target: LarE from Thermotoga maritima, C-terminal His6-tagged (Thermotoga maritima); assay: SEC-MALS; Superdex 200 Increase 10/300 GL, 100 mM Tris-HCl pH 7.2, 300 mM NaCl, 0.5 ml/min; miniDAWN TREOS detector

Substance: LarE from Thermotoga maritima, C-terminal His6-tagged (enzyme)
- stoichiometry N [1]: 2 and 4 and 6
- stoichiometry N [2]: 2
